Test results: the nanobody polyreactivity screen of Harvey et al. (2022)

Test: yeast display, Sf9 membrane polyspecificity reagent, FACS + sequencing; frameworks hold sequencing errors
Procedure, shortened: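 Synthetic nanobody libraries on Saccharomyces cerevisiae BJ5465 were galactose-induced for 36–48 hours, stained 1 hour at 4 °C with 10% biotinylated, detergent-solubilized Sf9 membrane reagent and enriched on streptavidin microbeads. FACS then separated cells into low and high (top ~1%) gates by anti-HA (expression) and streptavidin (reagent binding) fluorescence. Genes were colony-PCR amplified, MiSeq 2 × 250 sequenced and CDR-length filtered. A clone's polyreactivity label is that of its gate of origin.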

Row | Sequence | polyreactivity (PSR sort gate)
1 | QDQHVESGGGLVQAGGSLRLSCAASGIIFYAYVMGWYRQAPGKERELVAAITVSGGSTYYADSVKARFTISRDNAKNTVYLQMNSLKPEDTAVYYCAADWNFYQRTFDSWGQGTQVTVSS | low polyreactivity
2 | QDQHVESGGGLVQAGGSLRLSCAASGITIRTNAIGWYRQAPGKERELVAAITTNGGNTYYADSVKGRFTISRENAKNTVYLQMNSLKQEDTAVYYCNTATYVDSFPDPGDHWGQGTQVTVSS | low polyreactivity
3 | QDQHVESGGGLVQAGGSLRLSCAASGLTYRYNAMGWYRPAPGKERELVAAITSSGGSTYYADSVKGRFTISRDNAKNTVYLQMNSLKPEDTAVYYCAAATNTQESVPMYYWGQGTQVTVSS | low polyreactivity
4 | QDQHVESGGGLVQAGGSLRLSCAASGSIFVTNAMGWCRQARGKERELVAAISVSGGSTYYADSVKGRFTISRDNAKHTVYLQMTSLKPEDTAVYYCNTVRSPPGHDSWGQGTQVTVSS | low polyreactivity
5 | QDQHVESGGGLVQAGGSLRLSCAASGSTIVDYVMGWYRQAPGKERELVAAIRRSDGRTYYADSVKGRFTISRDNAKNTVYLQMNSLKPEDTAVYYCADYAFYRYFFPDVLYDYWGQGTQVTVSS | low polyreactivity
6 | QDQHVESGGGLVQAGGSLRLSCAASGSTLYRYAMGWYRQAPGKERELVAAISSAGSTHYADSVKGRFTISRDNAKNTVYLQKNSLKPEDTAVYYCAKVVKKIEFDYWGQGTQVTVSS | high polyreactivity
7 | QDQHVESGGGLVQAGGSLRLSCADSGIIFYPNAMGWYRQAPGKERELVAAITGSGGSTYYADSVKGRFTISRDNAKYTVYIQMNSLKPEDTAVYYCATRYHRSDPSRDYWGQGTQVTVSS | low polyreactivity
8 | QDQHVESGGGLVQAGGSLRLSCDASGTTIYDYVMGWYRKAPGKERELVAAITRGGSTNYADSVKGRFTISRDNAKNTVYLQMNRLKPEDTAVYYCAARPCIWARAGYYWGQGTQVTVSS | high polyreactivity
9 | QDQHVESGGGLVQAGGSLRLSFAASGRIFRYYAMRWYRQAPGKDRELVAAIRWTAGSTYYADSVKVRFTISRDNAKNTVYLQMNSLKPEDPAVYYCATDVWKYGRYEYWVQGTQVTVSS | low polyreactivity
10 | QDQHVQSGVGIVQAVGSLRLSCAASGFTIPSYAMGWYRMAPGKEREFVAAISWNSGSTYYADSVKGRFTISRDNAKNTVYLQMNSLKPEDTAVYYCNAGAYVRRRYAPGYSFEYDSWGQGTQVTVSS | high polyreactivity
11 | QDQIVESCGGLVQAGGSLRLSCASSGNIIYPKAMGWYRQAPGKERDLVAAISTSRGSTYYADSVKGRFTISRDNAKNTVYLQMNSLKPEDTAVYYCNRRGPYGYKAWAIGTIGDLDYWGQGTQVTVSS | low polyreactivity
12 | QDQIVETGGGLVQAGCSLRLSCAASGSIYYNSMGWYRTAHAKETELVASISTGDSTDYADSVKGRFTISRDYAKYTVYLQMNSLKPEDTAVYYCKAVASQHDEFDYWGQGTQVTVSS | low polyreactivity
13 | QDQLEESGGGLVQEGGSLRLSCAASGFTFRGYAMGWYRQAPGKERELVAAISYSGGSTYYADSVKGRFTISRDNAMNSVYLQMNSLKPEDTAVYFCAARGGGKVRHRGTYDYWGQGTQVTVSS | high polyreactivity
14 | QDQLGESGGGLVQAGGSLRLSCAASGYIFGTYAMGWYRQATGKERELVAAISVGGGSTYYADSVKGRFTISRDNAKHTVYLQMNSLKPEDTAVYYCAAVQLYQKHQITYVAHEYWGQGTQVTVSS | low polyreactivity
15 | QDQLLESGGGVFQAGGSLRLSCAASGVIFGSYALGWYRPAPGKERELVADITQSGGRTRYADSVKGRFTISRDNAKNTVYLQMNSLKPEDSAVYYCNAQDVDSGDDYDYWGQGTQVTLSS | low polyreactivity
16 | QDQLQESGGGLVQAGGSLRLSCAASGSISYPRTMGWYRQAPGKEREFVAGIGVGGTTYYADSVKGRFTISRDNAKNTVYLQMKSLKPEDAAVYYCAVAAYYDKYYVYWGQGTQVTVSC | low polyreactivity
17 | QDQLVDSGGGLDQAGGSLRLSCAASGGTFSSYDMGWYRQEPGKERELLADISWSGSSTDYADSVKGRYTISRDNAKNTVYLQLTSLKPEDTAVYYCAARPISFPYLGRNGYWGQGTQVTVSS | low polyreactivity
18 | QDQLVDSGGGLVQAGGRLRLSCAASGSTYRTYAMVRYRQAPGKERELVAAINSGGSTYYADSVKGRFTISRDNAKNTVYLQMNSLKPEDTAVYSCAREDYVSYRLLYYLFDYWGQGTQVTVSS | low polyreactivity
19 | QDQLVDSGGGLVQAGGSLRLSCAASGFTFFRKAMGWYREAPGKERQLVAAITRAGSTYYADSVKGRFTISRDNAKNTVYLQMNSLKAEDTEVYYCFDLSNRYAVRYDYWGQGTQVTVSS | high polyreactivity
20 | QDQLVDSGGGLVQAGGSLRLSCAASGSIFTPNAMGWYRQAPGKERELVAAISWSGGGTYYADSVKGRFTISRDNAKNTVYLQMNSLKPEDTAVYYCNAEYTKTGALVIPYTYYYAEDYWGQGTQVTVSS | low polyreactivity
21 | QDQLVDSGGGLVQAGGSLRLSCAASGSIFWTYAMGWYRQAPGKERELVATITYSDGNTYYADSVKGRFTISRDNAMNTVYLQMNSLKPEDTAVYYCNADGIYASISGYRYDYWGQGTQVTVSS | low polyreactivity
22 | QDQLVESAGGLVQAGGSLRLICAASASIFYWNAMGWYRQAPGKERELVAAITSGGSTYYADSVKGRFTISRDNAKNTVYLQMNSMKPEDTAVYYCAARPRGTYSRLGYWGQGTQVTVSS | high polyreactivity

Row | Sequence | polyreactivity (PSR sort gate)
23 | QDQLVESCGGLVQAGGSLRLSCAASGGIINGYTMGWYRQAPGKETDLVAAITGSGGSTYYADSVKGRYTISRDNAKNTVYLQMNSLKPEETAVYYCARDYHARPNCPRSDDYDYWGQGTQVTVSS | low polyreactivity
24 | QDQLVESCGGLVQAGGSLRLSCASSGSTIYIYAMGWSRQAPVKERELVAAITWSGGSTYYADSVKGRFTISRDNAKNTVYLQMNSLNREDTAVYYFAAYLRYYRKEVGYSSMNYWGQGTQVTVSS | high polyreactivity
25 | QDQLVESGAGLVQAGGSLRLSCAASGITFSANAMGWYRQAPGKERELVATITWSGGSTYYADSVKGRFTISRDNAKNTVYLQMNSLKPEDTAVYFCNARSYDEYPYYSYNYWGQGTQVTVSS | low polyreactivity
26 | QDQLVESGAGLVQAGGSLRLSCAASGRIFPGYAMGWYRQAPGKERELVAGITWRTARTYYADSVKGRFTISRDNAKNTVYLQMNSLKPEDTAVYYCAAKYARYGRHVIFDYWGQGTQVTVSS | high polyreactivity
27 | QDQLVESGGALVQAGGSLRLSCAASGSIFDYNAMGWYRQAPRKDRELVAAISVNGGNTYYADSVKGRFTISRDNAKNTVYLQMNRLKPEDTGVSYCAADSYGGSNYDFWGQGTQVTVSS | low polyreactivity
28 | QDQLVESGGCLVQAGGSLRLSCAASRFTFSPYTMGWYRQAPGKERELVATIRYDGTSTYYADSVKGRFTISRDNAKNTVYLQMNSLKPEDTAVYYCNADPGYYDYDYWGEGTQVTVSS | low polyreactivity
29 | QDQLVESGGGIVQAGGSLRLICAASGRIFLRNDMGWYRQAPGKQRELVAGISSDGSTYYADSVKGRFTISRDNAKNTVYLQMNSLKPEDTAVYYCADERWGNPTDYQFWRQYDYWGQGTQVTVSS | low polyreactivity
30 | QDQLVESGGGIVQAGGSLRLSCAASGRTFTAYAMGWYRQAPGKERELVAAISSSGGSTYYADSEKGRFTISRDNAKNTVYLQMNSLKPDDTAVYYCAALGGYRYGYDYWGQGTQVTVSS | high polyreactivity
31 | QDQLVESGGGLDQAGGSLRLSCAASGGTFKVNAMGWYRQAPGKEREFVAAISSGGSTYYADSVKGRFTISRDNAKNTVYLQINSLKPEDTAVYYFAASGAYDEAYGEAFYYWGQGTQVIVSS | low polyreactivity
32 | QDQLVESGGGLLQAGGSLRLSCAASGFTFSIYAMGWYRQAPGKERELVAAISSSSSTNYADSVKVRFTISRDNAKNTVYLQMNSLKPEDTEVYYCNADNVGNTFTWYDYWGQGTQVTVSS | low polyreactivity
33 | QDQLVESGGGLLQAGGSLRLSCAASGIIFYPYAMGWYRQAPGKERELVAAITTRGRTYYADSVKGRFTISRDNAKNTVYLQLNSLKPEDTAVYYCNARRYFSRDSSGYNYWGQGTQVTVSS | high polyreactivity
34 | QDQLVESGGGLRQAGGSLRLSCAASGPTFFVYAMGWYTQAPGKERELVAAISWNGGSTFYADSVKGRFTISRDNAKNTVYIQMNSLNPEDTAVYYCAAVESRGWGGYGYWGQGTQVTVSS | high polyreactivity
35 | QDQLVESGGGLVHAGCSLRLSCAASGRTFYGNAMGWYRQAPGKERELVAGITRGGSTYYADSVKGRFTISRDNAKNNVYLQMNSLKPEDTAVYYCAATRYYSWGSRGGYWGQGTQVSVSS | high polyreactivity
36 | QDQLVESGGGLVHAGGSLRLSCAASGSTFQYYVMGWYRQAPGKERELVAAITWSGGSTYYADSVKGRFTISRDNAKNTVYLQMNSLKPEDTAVYYCKAASGPDFEYEYWGEGTQVTVSS | low polyreactivity
37 | QDQLVESGGGLVHAGGSLRLSCVPPDSSSLSMLWDGIDRRLGKKGSWLPELTSRGVGTYYADSVKGRFTISRDNAKNPVYLQMNSLKPEDTAVYYCNARYEVFYRYDYWGQGTQVTVSS | low polyreactivity
38 | QDQLVESGGGLVLSGGRLRLSCAASGSNFSFYAMGWYRQAPGKERELVAGIRWRGGTSTFYADSVKWRFTISRDNAKNTVYLQMNSLKPEDTAVYYCAAKRRTGGNGYWGQGTQVTVSS | high polyreactivity
39 | QDQLVESGGGLVQAGASLRLSCAASGFIFSYYAMGWYRQAPGKERELVAAITWSGSSTYYADSVKGRFTISRDNAKNTVYLQMNSLKPEDTAVYYCPASSGGFRHYYYTYNYWGQGTQVTVSS | high polyreactivity
40 | QDQLVESGGGLVQAGCSLRLSCAASGLIFGWYAMGWYRQAPGKERELVASISRSGGSTYYADSVKGRFTISRDNAKNTVYLQMNSLITEDTAVYYCAALNYVFRLTYGYDYWGQGTQVTVSS | high polyreactivity
41 | QDQLVESGGGLVQAGCSLRLSCAASGRTFTYYAMGWYRQAPGKERELVAALSKRGGTTYYADSVKVRFSMSRDNAKNTDYLKMNSLKAVDTAVYYCATEGNLRTAGYAYDHYYWGQGTQVTVSS | high polyreactivity
42 | QDQLVESGGGLVQAGCSLRLTCAASGSTFSYYAMGWYRQAPGKERELVADISWSGGSTYYADSVKGRFTISRDNAKNTVYLQMNSLKAAHTAVYYCAARGGSVLRYGKYYYWGQGTQVTVSS | low polyreactivity
43 | QDQLVESGGGLVQAGDSLRLSCAASGIILLSYAMGWYRQAPGKERELVAAITSGGGTNYADSVKGRFTISRDNAKNTVYLQMNSLKPEDTAVYYCAVGAYAGLYYYWGQGTQVTVSS | low polyreactivity
